From publication PMC4108183 come the findings set out here.

Substrate in series [1]: O=S(O)(O)=S
Description: purified protein. The conditions noted are these: pH 9.0, 37.0 °C.

Substrate in series [2]: CC(C)(COP(=O)(O)OP(=O)(O)OC[C@H]1O[C@@H](n2cnc3c(N)ncnc32)[C@H](O)[C@@H]1OP(=O)(O)O)[C@@H](O)C(=O)NCCC(=O)NCCS
Description: purified protein. The conditions noted are these: alternate sulfane sulfur acceptor; pH 9.0; 37.0 °C.

B1: human TSTD1 (Homo sapiens) (protein)
chain: MAGAPTVSLPELRSLLASGRARLFDVRSREEAAAGTIPGALNIPVSELESALQMEPAAFQALYSAEKPKLEDEHLVFFCQMGKRGLQATQLARSLGYTGARNYAGAYREWLEKES
A word on the Km: it is the substrate concentration at which the rate is half of its maximum. In the case of B1, the Km in “purified protein [1]” (sulfane sulfur transferred to active site cysteine (Cys79)) was 14000 ± 2000 µM; in the series “purified protein [2]”, 90 ± 10 µM.

B2: yeast RDL1 (Saccharomyces cerevisiae S288C) (protein)
chain: MWKAVMNAWNGTESQSKNVSNIQSYSFEDMKRIVGKHDPNVVLVDVREPSEYSIVHIPASINVPYRSHPDAFALDPLEFEKQIGIPKPDSAKELIFYCASGKRGGEAQKVASSHGYSNTSLYPGSMNDWVSHGGDKLDL
Regarding B2, the figures for the Km in the series “purified protein [1]” (sulfane sulfur transferred to active site cysteine (Cys98)) and in the series “purified protein [2]” were 2000 ± 500 µM and 150 ± 50 µM, respectively.
